Starred links: 1 amine or outer side, 2 acyl side, 3 side chain; linkers in the order of their positions; H or OH if unused. Non-standard residues stand in square brackets, D forms with d. Groups on a side chain read outwards from the residue. No end group written: not given here. *: point of attachment. C15 diacid = O=C(O)CCCCCCCCCCCCCC(=O)*; γGlu = O=C(O)[C@H](CCC(=O)[*:2])N[*:1]; Palmitoyl = CCCCCCCCCCCCCCCC(=O)*; acyl = not defined here; Aib = CC(C)(N)C(=O)O
Columns and labels:
[1] = test system: morphine (0.6 mg/kg, s.c.)-induced emesis in ferrets; test: Morphine-induced acute emetic model in male ferrets; type: in vivo, ferret; conditions: ferrets; morphine administered 4 hours after administration
Description: Example 6—In-Vivo Effect of GIP Receptor Agonist Peptides on Emesis in Morphine Induced Emesis Model in Live Male Ferrets
Effect of subcutaneously administered GIP receptor agonist peptide in morphine-induced acute emetic model.
To evaluate the antiemetic effect, the GIP receptor agonist peptides other than natural human GIP were subcutaneously administered into male ferrets 30 minutes before morphine administration. […]. Up to 60 minutes after morphine administration, the condition of the ferrets was monitored to record the frequencies and time points of abdominal contraction motions, vomiting behaviors, licking with the tongue, and fidgety behavior occurring
Effects of Subcutaneously Administered GIP Receptor Agonist Peptides in Morphine-Induced Acute Emetic Model
30 nmol/kg of Compounds 3 and 5 were dissolved with a vehicle (0.09 w/v % tween 80/10% DMSO/saline), respectively, to prepare test solutions. […] of the test solutions and the vehicle were subcutaneously administered to ferrets (4 in each group), respectively. At the time of each of 4 hours, after administration, 0.6 mg/kg of morphine was subcutaneously administered. […] See results in Tables 6, 7 and 8.
(§1) 10 nmol/kg of each compound dissolved with a vehicle (0.09 w/v % tween 80/10% DMSO/saline) respectively, to prepare test solutions. […] of the test solutions and the vehicle were subcutaneously administered to ferrets (4 in each group), respectively. At the time of each of 4 hours, or 120 hours after administration, 0.6 mg/kg of morphine was subcutaneously administered. Up to 360 minutes after morphine administration, the condition of the ferrets was monitored to record the frequencies and time points of abdominal contraction motions, vomiting behaviors, licking with the tongue, and fidgety behavior occurring.
as §1, with “30 nmol/kg” for “10 nmol/kg”, “80/10% DMSO/saline),respectively,” for “80/10% DMSO/saline) respectively,”

human GLP-1R = human GLP-1R (human, UniProt P43220 24-463); test: cell-based or functional assay
human GIPR = target: T1, human GIPR (human, UniProt P48546 22-466); test: cell-based or functional assay
T1 sequence (looked up): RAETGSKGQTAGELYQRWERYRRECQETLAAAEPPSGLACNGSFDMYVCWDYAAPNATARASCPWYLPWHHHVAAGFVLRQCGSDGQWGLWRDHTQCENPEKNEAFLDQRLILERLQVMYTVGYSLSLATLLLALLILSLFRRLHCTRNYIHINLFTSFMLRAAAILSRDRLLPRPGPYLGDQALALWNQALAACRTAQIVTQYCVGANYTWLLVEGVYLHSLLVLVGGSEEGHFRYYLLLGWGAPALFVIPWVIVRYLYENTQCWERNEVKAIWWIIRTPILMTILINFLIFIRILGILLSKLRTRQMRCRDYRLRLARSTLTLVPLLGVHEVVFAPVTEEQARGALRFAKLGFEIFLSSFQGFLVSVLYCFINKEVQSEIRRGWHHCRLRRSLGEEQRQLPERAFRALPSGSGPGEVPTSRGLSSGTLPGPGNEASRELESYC

Molecule | Ferrets in which the vomiting symptom was observed (in words) [1] | GLP1R EC50 nM (B) (human GLP-1R) [nM] | GLP1R pEC50 (human GLP-1R) | GIPR EC50 nM (A) (human GIPR) [nM] | GIPR pEC50 (human GIPR) | Selectivity Ratio (B/A), GLP1R EC50 over GIPR EC50 (human GIPR)
Ac-(D-Tyr)AEGTFISDYSIAMDAIHQQDFVNWLLAQLys-(palmitoyl acyl fatty acid)-NH2 (Ac-[dY]AEGTFISDYSIAMDAIHQQDFVNWLLAQK(Palmitoyl)-NH2; SMILES CCCCCCCCCCCCCCCC(=O)NCCCC[C@H](NC(=O)[C@H](CCC(N)=O)NC(=O)[C@H](C)NC(=O)[C@H](CC(C)C)NC(=O)[C@H](CC(C)C)NC(=O)[C@H](Cc1c[nH]c2ccccc12)NC(=O)[C@H](CC(N)=O)NC(=O)[C@@H](NC(=O)[C@H](Cc1ccccc1)NC(=O)[C@H](CC(=O)O)NC(=O)[C@H](CCC(N)=O)NC(=O)[C@H](CCC(N)=O)NC(=O)[C@H](Cc1c[nH]cn1)NC(=O)[C@@H](NC(=O)[C@H](C)NC(=O)[C@H](CC(=O)O)NC(=O)[C@H](CCSC)NC(=O)[C@H](C)NC(=O)[C@@H](NC(=O)[C@H](CO)NC(=O)[C@H](Cc1ccc(O)cc1)NC(=O)[C@H](CC(=O)O)NC(=O)[C@H](CO)NC(=O)[C@@H](NC(=O)[C@H](Cc1ccccc1)NC(=O)[C@@H](NC(=O)CNC(=O)[C@H](CCC(=O)O)NC(=O)[C@H](C)NC(=O)[C@@H](Cc1ccc(O)cc1)NC(C)=O)[C@@H](C)O)[C@@H](C)CC)[C@@H](C)CC)[C@@H](C)CC)C(C)C)C(N)=O) [Compound 7] | all of the 4 ferrets |  |  |  |  | 
YAEGTFISDYSIAMDKIHQQDFVNWLLAQKGKKNDWKHNIIQ (Lys-(palmitoyl acyl fatty acid acyl) at 16; C-terminal -NH2) [Compound No. 3] |  | 148 | 6.8 | 0.331 | 9.5 | 
YXEGTFISDYSIXXDKIHQQDFVNWLLAQKGKKNDWKHNITQ (3,5-diBr-Tyr at 1; Aib at 2; Aib at 13; Nle at 14; C-terminal -OH) [Compound No. 8] |  | 118 | 6.9 |  | 10.7 | 5600
FXEGTFISDYXIAXDKIHQQDFVNWLLAQKGKKNDWKHNITQ (Aib at 2; X* = 1-amino,1-cyclopentane carboxylic acid at 11; Nle at 14; C-terminal -OH) [Compound No. 9] |  | > 1000 | < 6 | 0.004 | 11.4 | > 100000
Ac-YAEGTFISDYSIAMDKIHQQDFVNWLLAQKGKKNDWKHNIIQ-OH [Compound No. 1] |  | 302 | 6.5 | 0.01 | 11 | 
Y[Aib]EGTFISDYSIALDKIHQQK([ethylene glycol-ethylene glycol-C15 diacid])FVNWLLAQRG-OH [Compound No. 24] |  |  |  | < 0.001 |  | 
Y[Aib]EGTFISDYSIALDKIHQQK([ethylene glycol-ethylene glycol-C15 diacid])FVNWLLAQR-NH2 [Compound No. 28] |  |  |  | < 0.001 |  | 
Y[Aib]EGTFISDYSIALDKK([ethylene glycol-ethylene glycol-C15 diacid])HQQDFVNWLLAQRG-OH [Compound No. 26] |  | > 1000 | < 9 | 0.001 |  | 
Y[Aib]EGTFISDYSIALDKIHQQDFVNWLLAQK([ethylene glycol-ethylene glycol-C15 diacid])G-OH [Compound No. 31] |  |  |  | 0.002 |  | 
Y[Aib]EGTFISDYSIAMDKK([γGlu-Palmitoyl])HQQDFVNWLLAQKGKKNDWKHNIIQ-OH (not fully specified; also: acyl given as C16DA in synthesis) [Compound No. 5] |  |  | 7 | 0.001 | 11.9 | 93300
Y[Aib]EGTFTSDYSI[Aib]LDKIAQRAFVQWLIA[Aib]KGKKQEWKHQITQK(acyl)-NH2 (reading uncertain; also: Lys43 acylated, acyl not given here) [Compound No. 16] |  | < 0.02 |  | 0.001 | 12 | 
Y[Aib]EGTFISDYSIALDKIK([ethylene glycol-ethylene glycol-C15 diacid])QQDFVNWLLAQRG-OH [Compound No. 25] |  | > 1000 | < 8 | < 0.001 |  | 
Y[dA]EGTFISDYSIAMDKIHQQDFVNWLLAQKGKKNDWK(Palmitoyl)HNIIQ-NH2 [Compound No. 2] |  | 5 | 8.3 |  |  | 
Y[Aib]EGTFISDYSIALDKK([ethylene glycol-ethylene glycol-C15 diacid])HQQDFVNWLLAQR-NH2 [Compound No. 27] |  |  | 6.02 | 0.001 |  | 
Y[dA]EGTFISDYSIAMDKIHQQDFVNWLLAQK-OH [Compound No. 4] |  | 355 | 6.5 |  |  | 
Y[dA]EGTFISDYSIAMDKIHQQDFVNWLLAQKGKKNDWKHNIIQ-NH2 [Compound No. 14] |  | 933 | 6.03 | 0.001 | 12.3 | 
YXEGTFISDYSIAMDKIHQQDFVNWLLAQKGKKNDWKHNITQK (Aib at 2; Lys-(gamma-glutamic acid)3-palmitoyl at 43; C-terminal -OH) [Compound No. 19] |  |  | 8.26 |  |  | 
